The term EC50 denotes the concentration that produces a half-maximal response.

Test [1] has as its target monkey IL-23R-mouse Fc fusion protein (monkey; mouse). As to the kind of experiment: antigen ELISA, monkey IL-23R-mouse Fc immobilized, HRP anti-human IgG, chemiluminescence.
In test [2] the target is human IL-23R on Kit-225 cells (human) (UniProt Q5VWK5). Briefly: cell-based or functional assay.
For test [3], the target named is human IL-23R-mouse Fc fusion protein (human; mouse) (UniProt Q5VWK5). Briefly: antigen ELISA, human IL-23R-mouse Fc immobilized, HRP anti-human IgG, chemiluminescence. For orientation: ELISA stands for enzyme-linked immunosorbent assay.
Chain of human IL-23R-mouse Fc fusion protein (human; mouse) (Q5VWK5 24-353 L310P limits assumed): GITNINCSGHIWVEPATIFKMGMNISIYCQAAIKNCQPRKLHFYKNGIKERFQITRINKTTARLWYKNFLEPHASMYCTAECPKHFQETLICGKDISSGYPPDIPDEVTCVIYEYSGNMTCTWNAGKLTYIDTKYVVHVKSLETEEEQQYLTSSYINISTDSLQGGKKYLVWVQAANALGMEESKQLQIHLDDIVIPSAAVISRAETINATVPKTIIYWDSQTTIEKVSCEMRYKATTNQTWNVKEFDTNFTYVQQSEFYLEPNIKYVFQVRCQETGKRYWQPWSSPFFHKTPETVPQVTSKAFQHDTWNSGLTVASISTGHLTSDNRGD

Chain of human IL-23R on Kit-225 cells (human) (Q5VWK5 24-629 L310P limits assumed): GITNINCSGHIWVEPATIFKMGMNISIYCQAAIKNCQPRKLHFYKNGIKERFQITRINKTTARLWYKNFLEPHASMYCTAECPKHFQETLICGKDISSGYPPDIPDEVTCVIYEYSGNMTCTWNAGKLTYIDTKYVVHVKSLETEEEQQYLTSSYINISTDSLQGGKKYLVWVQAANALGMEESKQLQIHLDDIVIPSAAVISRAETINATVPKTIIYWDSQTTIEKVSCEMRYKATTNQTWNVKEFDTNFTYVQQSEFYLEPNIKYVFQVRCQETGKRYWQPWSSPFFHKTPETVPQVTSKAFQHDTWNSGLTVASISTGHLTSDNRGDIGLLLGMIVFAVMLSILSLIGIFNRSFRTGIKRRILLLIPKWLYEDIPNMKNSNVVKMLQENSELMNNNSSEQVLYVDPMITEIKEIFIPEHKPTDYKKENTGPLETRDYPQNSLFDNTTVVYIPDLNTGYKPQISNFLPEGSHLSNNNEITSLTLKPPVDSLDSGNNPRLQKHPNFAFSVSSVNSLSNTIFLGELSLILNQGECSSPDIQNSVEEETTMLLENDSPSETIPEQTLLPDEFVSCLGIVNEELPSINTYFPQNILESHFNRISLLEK

B1: hum20D7 (antibody, from another filing, V domains shown)
VH: QVQLVQSGAEVKKPGASVKVSCKASGYTFTNYAMNWVRQAPGQGLEWMGWINTYTGEPTYSDDFKGRVTFTLDTSTSTAYMELRSLRSDDTAVYYCARGGGYDEDYFDYWGQGTLVTVSS
VL: DIVMTQSPLSLPVTPGEPASISCKSSQSLFNTINQKTYLAWYLQKPGQSPQLLIYFASTRESGVPDRFSGSGSGTDFTLKISRVEAEDVGVYYCQQHYDTPWTFGQGTKVEIKR
B1: the EC50 is above 10 µg/mL in test [1] and 0.0452 µg/mL in test [3]. The same molecule displayed a Human IL-23-inducible Kit-225 cell proliferation inhibitory activity, IC50 in test [2] of 0.0276 µg/mL.

For the origin of these results see patent US20150126713A1.
